Results: the supplement of paper PMC10567573

B1: RSPH3 (parent)
chain: MTVKPAKAASLARNLAKRRRTYLG

Variants of: B1
Experiment: protein stability index of a GFP-peptide fusion (GPS, HEK-293T) (PSI 1-6); higher = more stable
Conditions: c terminus: a fixed tail appended
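Also: lentivirally expressed fusions sorted by FACS into six bins by GFP to DsRed ratio, PSI derived from sequencing read proportions per bin multiplied by bin number.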

Protein stability index: each site, then its substitutions
N14: C 2.14 | Y 2.75 | A 1.87 | D 3.08 | H 1.94 | E 2.88 | G 3.21 | Q 3.41 | M 2.39 | F 1.96 | I 1.22 | R 2.13 | K 2.4 | V 2.53 | S 2.62 | P 2.8 | T 3.29 | W 2.67
A6: T 2.99 | W 1.91 | C 2.72 | G 3.13 | R 2.19 | V 2.89 | D 1.79 | S 3 | N 2.88 | E 3.24 | I 2.43 | K 2.67 | Y 2.93 | L 1.63 | F 3.04 | M 2.27 | P 3.92 | H 3.38 | Q 3.58
L23: Q 4.34 | N 3.5 | F 3.2 | C 3.28 | S 4.5 | I 4.26 | R 3.61 | H 3.9 | D 3.71 | V 2.96 | E 4.43 | K 3.5 | P 3.42 | G 4.13 | A 3.98 | T 4.09 | M 3.53
T21: F 1.93 | V 2.83 | K 3.9 | Q 3.21 | A 3.09 | M 2.7 | Y 2.13 | R 3.18 | C 2.73 | E 3.47 | L 2.98 | S 3.26 | I 2.54 | P 2.92 | G 2.83 | D 3.59 | W 1.77 | H 2.79 | N 2.98
K17: R 3.04 | F 2.1 | M 2.8 | S 2.91 | H 2.99 | C 1.99 | A 3.39 | G 3.5 | Q 2.49 | I 2.46 | D 3.25 | L 2.61 | Y 2.38 | P 3.02 | W 1.92 | N 2.57 | V 2.64 | T 3 | E 2.99
S10: H 3.28 | V 3.34 | E 2.74 | P 3.1 | A 2.86 | N 2.99 | L 3.35 | C 2.01 | M 2.02 | F 2.35 | R 3.92 | G 2.88 | K 2.1 | I 2.55 | Y 2.03 | D 2.96 | T 3.41 | W 2.47
A9: L 1.79 | W 1.9 | Q 2.77 | F 2.62 | Y 3.04 | C 2.73 | V 3.28 | T 3.11 | M 2.2 | H 3.37 | P 3.03 | E 3.65 | K 2.64 | G 2.71 | N 3.58 | S 2.95 | I 1.79 | R 2.42 | D 2.9
R20: F 1.96 | W 2.2 | N 2.94 | Q 3.83 | V 1.63 | P 2.81 | Y 1.51 | T 2.61 | E 2.81 | S 2.61 | C 1.91 | H 2.59 | I 2.17 | K 3.12 | D 3.08 | M 2.72 | L 1.81 | A 2.41
L15: E 4.42 | Y 2.84 | T 3.35 | C 3.14 | H 3.32 | I 3.14 | F 2.08 | N 3.56 | S 3.75 | D 4.11 | R 3.92 | M 2.58 | V 4.02 | K 3.48 | A 4.08 | Q 3.34 | P 3.75 | G 4.08
R19: N 2.37 | W 1.64 | F 1.23 | C 1.6 | I 1.77 | H 1.51 | M 3.63 | V 1.45 | P 1.86 | E 3.49 | T 2.52 | Q 2.62 | S 2.51 | L 2.05 | G 2.85 | Y 2.42 | A 1.79 | K 2.86 | D 2.88
R18: A 3.3 | P 2.38 | Y 2.27 | G 3.22 | W 2.55 | I 2.63 | M 2.38 | V 2.91 | E 3.33 | C 2.62 | N 2.31 | F 2.71 | K 2.55 | Q 2.52 | T 2.73 | L 2.55 | D 3 | H 2.91 | S 2.96
A12: Q 3.11 | V 2.16 | N 2.49 | W 2.09 | F 1.94 | C 2.87 | G 3.21 | I 2.69 | L 1.34 | P 2.87 | S 2.39 | K 3.22 | T 3.28 | H 2.17 | Y 2.19 | R 3.67 | D 3.94 | E 2.83 | M 2.22
A16: H 3.91 | C 2.72 | F 2.48 | K 3.44 | D 3.04 | N 2.72 | M 2.57 | P 3.42 | V 3.28 | W 1.82 | S 3.36 | L 2.35 | R 3.35 | G 3.15 | Q 2.19 | I 2.28 | E 2.15 | T 2.69 | Y 2.53
A8: H 2.68 | P 2.04 | E 3.25 | W 2.46 | G 2.4 | T 2.87 | L 2.65 | S 2.55 | R 2.3 | Y 2.04 | C 2.52 | Q 2.5 | M 2.62 | N 2.58 | D 3.43 | F 2.03 | V 2.57 | K 3.23 | I 2.17
R13: M 2.39 | N 3.63 | A 3.26 | T 2.66 | K 3.08 | G 2.86 | Q 3.48 | H 2.42 | I 2.7 | W 1.8 | S 2.8 | P 2.48 | V 2.56 | F 2.29 | C 3.12 | D 2.85 | E 3.08 | L 2.36
Y22: D 3.31 | F 3.25 | W 3.06 | Q 3.93 | N 3.46 | H 3.84 | P 3.26 | M 2.9 | C 3.63 | E 3.12 | A 3.81 | R 3.03 | S 3.23 | I 3.37 | T 3.88 | G 4.24 | V 3.99 | K 3.85
K7: N 3.21 | W 3.15 | P 3.18 | S 2.66 | E 3.59 | D 3.25 | M 2.93 | G 3.13 | Q 3.88 | L 3.62 | T 3.06 | R 2.96 | C 2.56 | H 3.82 | Y 2.23 | V 2.44 | A 3.46 | F 2.2 | I 2.46
L11: G 3 | F 2.19 | E 4.03 | T 3.36 | R 2.18 | A 4 | M 3.16 | Y 3.01 | H 3.66 | W 1.83 | Q 3.79 | I 2.61 | C 2.54 | D 3.46 | S 3.29 | P 3.68 | V 3.3 | K 3.15 | N 3.99
